Broadly, the Kd is the free concentration of one partner at which half of the binding sites on the other are occupied at equilibrium, for simple one-to-one binding. As a reminder, the IC50 is the concentration needed to halve the response being measured.

The target of one assay is HLA-B*46:01. The assay is described as follows: IEDB peptide-MHC binding, purified MHC/competitive/fluorescence; filed as Kd, often an IC50 or EC50 that approximates it; ≥ and ≤ were set here for values at or beyond the usual limits of such assays.
Another assay concerns the target HLA-B*18:01. The assay is described as above.
The next assay concerns the target HLA-B*39:01. The assay is described as above.
Assay [1] concerns the target HLA-B*15:01. Described as above.
Another assay has as its target HLA-B*51:01. The assay is described as above.
The next assay deals with HLA-A*69:01. Described as above.
Assay [2] has as its target HLA-A*03:01. Described as above.
Assay [3] addresses HLA-A*26:01. The assay is described as above.
In the next assay the target is HLA-A*31:01. The description is as above. The note with it: source organism: Orthohantavirus sinnombreense.
The target in the next assay is HLA-A*02:19. The assay is described as follows: IEDB peptide-MHC binding, purified MHC/direct/fluorescence; filed as Kd, often an IC50 or EC50 that approximates it; ≥ and ≤ were set here for values at or beyond the usual limits of such assays.
In assay [4] the target is HLA-A*29:02. The assay is described as above. The note with it: source organism: Limestone Canyon virus.
For assay [5], the target named is HLA-A*02:12. The description is as above.
Another assay has as its target HLA-A*02:03. Described as above.
The next assay deals with HLA-A*02:16. The description is as above.
The target in the next assay is HLA-A*68:02. Described as above.
A further assay deals with HLA-B*07:02. The assay is described as follows: IEDB peptide-MHC binding, purified MHC/competitive/fluorescence; ≥ and ≤ were set here for values at or beyond the usual limits of such assays.
The next assay has as its target HLA-A*24:02. Described as above.
Assay [6] addresses HLA-B*15:01. The assay is described as above.
Assay [7] addresses HLA-A*02:01. The assay is described as above.
For assay [8], the target named is HLA-A*03:01. The assay is described as above.
In another assay the target is HLA-A*11:01. Described as above.
The target of another assay is HLA-B*57:01. The assay is described as follows: IEDB peptide-MHC binding, purified MHC/competitive/fluorescence; filed as Kd, often an IC50 or EC50 that approximates it; ≥ and ≤ were set here for values at or beyond the usual limits of such assays.
The target of another assay is HLA-B*27:03. The assay is described as above.
Assay [9] addresses HLA-A*02:01. The description is as above.
Assay [10] addresses HLA-B*15:01. The assay is described as follows: IEDB peptide-MHC binding, purified MHC/direct/fluorescence; filed as Kd, often an IC50 or EC50 that approximates it; ≥ and ≤ were set here for values at or beyond the usual limits of such assays. The note with it: source organism: Orthohantavirus andesense.
For assay [11], the target named is HLA-A*03:01. Described as above.
For another assay, the target named is HLA-A*02:11. The assay is described as above.
In assay [12] the target is HLA-A*26:01. The assay is described as above. The note with it: source organism: Orthohantavirus andesense.
The next assay deals with HLA-A*24:03. Described as above.
The next assay has as its target HLA-B*08:01. The assay is described as above. The note with it: source organism: Rio Mamore hantavirus.
Another assay deals with HLA-B*15:17. The assay is described as follows: IEDB peptide-MHC binding, purified MHC/competitive/fluorescence; filed as Kd, often an IC50 or EC50 that approximates it; ≥ and ≤ were set here for values at or beyond the usual limits of such assays. The note with it: source organism: Zaire ebolavirus.
The target in another assay is HLA-B*40:01. The assay is described as follows: IEDB peptide-MHC binding, purified MHC/direct/fluorescence; filed as Kd, often an IC50 or EC50 that approximates it; ≥ and ≤ were set here for values at or beyond the usual limits of such assays. The note with it: source organism: Sudan ebolavirus - Uganda (2000).
The target of assay [13] is HLA-A*29:02. The assay is described as follows: IEDB peptide-MHC binding, purified MHC/competitive/fluorescence; filed as Kd, often an IC50 or EC50 that approximates it; ≥ and ≤ were set here for values at or beyond the usual limits of such assays. The note with it: source organism: Listeria monocytogenes EGD-e.
Assay [14] deals with HLA-A*02:12. The assay is described as above. The note with it: source organism: Listeria monocytogenes EGD-e.
The mark [15] stands for this setting: source organism: Orthohantavirus sinnombreense.
Where [16] appears, read: source organism: Limestone Canyon virus.
Where [17] appears, read: source organism: Sudan ebolavirus.
Setting [18] is: source organism: Zaire ebolavirus.
Where [19] appears, read: source organism: Vaccinia virus.
Setting [20] is: source organism: Lechiguanas virus.
Setting [21] is: source organism: Pergamino virus.
Setting [22] is: source organism: Listeria monocytogenes EGD-e.

Consider RTLGVFRYK, for which the Kd in the assay with HLA-B*46:01 (setting [15]), in the assay with HLA-B*18:01 (setting [15]), in the assay with HLA-B*39:01 (setting [15]), in the assay with HLA-B*15:01 [1] (setting [15]), in the assay with HLA-B*51:01 (setting [15]) and with HLA-A*69:01 (setting [15]) was at least 20 µM throughout. The Kd is 109 nM in the assay with HLA-A*03:01 [2] (setting [15]); at least 20 µM with HLA-A*26:01 [3] (setting [15]); 6.2 nM with HLA-A*31:01; at least 20 µM with HLA-A*02:19 (setting [16]); at least 20 µM with HLA-A*29:02 [4]; at least 20 µM in the assay with HLA-A*02:12 [5] (setting [16]). The Kd in the assay with HLA-A*02:03 (setting [16]), in the assay with HLA-A*02:16 (setting [16]) and with HLA-A*68:02 (setting [16]) was at least 20 µM throughout.
On to RPHTPQFLF, for which the half-inhibitory concentration (IC50) in the assay with HLA-B*07:02 (setting [17]) is 1.46 µM; in the assay with HLA-A*24:02 (setting [17]) it was 1030 nM.
For FIHIPGDTL, the concentration for half-maximal inhibition (IC50) in the assay with HLA-B*15:01 [6] (source organism: Variola virus) is at least 80.7 µM; in the assay with HLA-B*07:02 (source organism: Variola virus), 47 µM; with HLA-A*02:01 [7] (source organism: Variola virus), 2550 nM.
Turning to TPSATTAAG, in the assay with HLA-B*07:02 (setting [18]), the half-inhibitory concentration (IC50) is at least 144 µM.
Regarding TSPRMLTPI, the IC50 with HLA-B*07:02 (setting [18]) was at least 260 µM; with HLA-A*02:01 [7] (setting [18]), at least 684000 nM; in the assay with HLA-A*24:02 (setting [18]) it was 3050 nM.
Consider TLRKERLAK, for which the IC50 in the assay with HLA-B*15:01 [6] (setting [18]) is at least 171 µM; in the assay with HLA-B*07:02 (setting [18]), at least 119 µM; in the assay with HLA-A*03:01 [8] (setting [18]) it was 0.509 µM; with HLA-A*11:01 (setting [18]), 4.25 µM.
With YIKNIGNTK, the IC50 with HLA-B*07:02 (setting [19]) is at least 745 µM; with HLA-A*03:01 [8] (setting [19]) it was 6.51 µM; with HLA-A*11:01 (setting [19]) it was 30.5 µM.
As to SCINGQCPY, the Kd with HLA-B*46:01 (setting [20]), with HLA-B*57:01 (setting [20]), with HLA-B*18:01 (setting [20]), in the assay with HLA-B*39:01 (setting [20]), with HLA-B*51:01 (setting [20]) and with HLA-A*69:01 (setting [20]) was at least 20 µM throughout. Besides, the Kd with HLA-B*27:03 (setting [20]) was at least 20 µM; with HLA-A*02:01 [9] (setting [20]), at least 20 µM; with HLA-A*02:19 (setting [21]) it was at least 20 µM; in the assay with HLA-B*15:01 [10], 6 µM; with HLA-A*02:12 [5] (setting [21]), at least 20 µM; with HLA-A*02:03 (setting [21]), at least 20 µM. Further, the Kd with HLA-A*03:01 [11] (setting [21]) is at least 20 µM; in the assay with HLA-A*02:11 (setting [21]), at least 20 µM; with HLA-A*02:16 (setting [21]), at least 20 µM; with HLA-A*68:02 (setting [21]), at least 20 µM; with HLA-A*26:01 [12], 2220 nM.
Consider KLKSVGKAY, for which the equilibrium dissociation constant (Kd) with HLA-B*57:01 (setting [20]), with HLA-B*18:01 (setting [20]), in the assay with HLA-B*39:01 (setting [20]), in the assay with HLA-B*51:01 (setting [20]), in the assay with HLA-A*69:01 (setting [20]) and with HLA-B*27:03 (setting [20]) was at least 20 µM each time. In addition, the equilibrium dissociation constant (Kd) in the assay with HLA-A*02:01 [9] (setting [20]), with HLA-A*26:01 [3] (setting [20]), with HLA-A*02:19 (setting [16]), in the assay with HLA-A*29:02 [4], with HLA-A*02:12 [5] (setting [16]) and with HLA-A*02:03 (setting [16]) was at least 20 µM in each case. Besides, the Kd was 0.536 µM with HLA-A*03:01 [11] (source organism: Rio Mamore hantavirus); at least 20 µM in the assay with HLA-A*24:03 (setting [16]); at least 20 µM in the assay with HLA-A*02:11 (setting [16]); at least 20 µM with HLA-B*08:01; at least 20 µM with HLA-A*02:16 (setting [16]); at least 20 µM with HLA-A*68:02 (setting [16]).
The sequence TGFGTNETE yielded an IC50 with HLA-B*07:02 (setting [18]) of at least 221 µM.
On to LESLTDREL, for which the Kd with HLA-B*46:01 (setting [18]), with HLA-B*57:01 (setting [18]), with HLA-B*18:01 (setting [18]), with HLA-B*15:17, in the assay with HLA-B*39:01 (setting [18]) and with HLA-B*15:01 [1] (setting [18]) was at least 20 µM throughout. In addition, the Kd in the assay with HLA-B*51:01 (setting [18]), with HLA-A*69:01 (setting [18]), with HLA-B*27:03 (setting [18]), in the assay with HLA-A*02:01 [9] (setting [18]), with HLA-A*26:01 [3] (setting [18]) and in the assay with HLA-A*02:19 (setting [18]) was at least 20 µM each time. Moreover, the Kd was 118 nM in the assay with HLA-B*40:01; at least 20 µM with HLA-A*02:12 [5] (setting [18]); at least 20 µM with HLA-A*02:03 (setting [18]); at least 20 µM with HLA-A*03:01 [11] (setting [18]); at least 20 µM with HLA-A*24:03 (setting [18]); at least 20 µM in the assay with HLA-A*02:11 (setting [18]). Further, the Kd with HLA-A*02:16 (setting [18]) and with HLA-A*68:02 (setting [18]) was at least 20 µM throughout.
For LAIVTTPLV, the Kd in the assay with HLA-B*46:01 (setting [22]), with HLA-B*57:01 (setting [22]), with HLA-B*18:01 (setting [22]), with HLA-A*29:02 [13], in the assay with HLA-B*39:01 (setting [22]) and in the assay with HLA-B*15:01 [1] (setting [22]) was at least 20 µM each time. Besides, the equilibrium dissociation constant (Kd) with HLA-A*02:12 [14] is 144 nM; with HLA-B*27:03 (setting [22]) it was at least 20 µM; with HLA-A*02:01 [9] (setting [22]), 0.0272 µM; with HLA-A*03:01 [2] (setting [22]) it was at least 20000 nM; in the assay with HLA-A*26:01 [3] (setting [22]), at least 20 µM.

Source of the values: the Immune Epitope Database (IEDB).
